# B1: TPR t1 (parent)
# chain: GACCAAUCUGCCCUCAGAGCUCGAGAACAUCUUCGGAUGCAGAGGAGGCAGGCUUCGGUGGCGCGAUAGCGCCAACGUCCUCAACCUCCAAUGCAUCCCACCACAUGAUGAUGCCUGAAGAGCCUUGGUUUUUUG
# Variants of: B1
# Experiment: polymerase ribozyme fitness, log enrichment relative to wild type (log ratio); higher = more active; in vitro selection for triplet polymerase activity
# Summary of the method: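 A single round of triplicate in vitro selection, including frozen incubation at −7 °C, was applied to PCR-built, transcribed mutant libraries of each subunit of a heterodimeric triplet polymerase ribozyme. Illumina sequencing of input and output libraries retained genotypes with ≥10 input reads and ≥1 read per output. Fitness is the base-2 logarithm of genotype enrichment divided by wild-type enrichment, from inverse-variance-weighted replicate averages.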
row,Variant,polymerase ribozyme fitness (log ratio)
1,A50U C62G C86G A105U A108U C124G,-7.62
2,A2U G135U,-1.94
3,C70G C98U G117A,-5.6
4,C11U C15A C49A C73G C85A G120A,-4.65
5,C49U G135U,-1.61
6,A27C C49G G77U,-5.08
7,C101A G117C A121U,-4.18
8,C76U A91C,-2.38
9,A46U U81C A90G C114U,-3.58
10,G57U U129G,-1.65
11,G71U G117U,-1.78
12,G69A A83U,-3.05
13,A41U A46U C115A G120U C123G,-2.25
14,A46C G63C G93A U116A G120U G135U,-4.76
15,G36C G69U G120C,0.673
16,A5C C13A C94A U112G,-2.97
17,C49U A121U,1.09
18,C115A U116A,-2.84
19,C20U A95G,-1.47
20,C31U U38C,-5.6
21,C40G U112C,0.984
22,C4U G58A C124U,0.263
23,G10A C13U C15U C79A A100U C124G U131G,-0.0361
24,A6U U129A,-1.16

row,Variant,polymerase ribozyme fitness (log ratio)
1,A27C C79U A91C G120A,-4.64
2,G42U C73A C114G,-1.95
3,C11G G113U G128U,-3.42
4,C53A G60U U106A U109G G113U,-5.78
5,C12A A66C U78A,-2.43
6,U7A G44C,-0.264
7,C11A C15U C28G C123G G128U,-5.63
8,G71A C123G,1.1
9,G52A C70U C104A C124G,-3.65
10,A6U A18U G60U U112C,-0.222
11,G61A G122A,-0.219
12,G61A U78C C80U,-5.11
13,C12U G60A G69A,-4.56
14,C13A C22G G69U G120U,-1.67
15,G47A C62A G120A U126A,-3.07
16,C20A G52U C62U U96G G120A,-3.86
17,U116A U133C,-3.8
18,A26U C56U,-3.38
19,G61U U109C,-2.41
20,G10U U59C C85U,-0.716
21,G110C G135C,-4.01
22,C13G C114A,-2.59
23,A37U A43G A50C G52U G110A,-5.79
24,C13A G60U C86U,-2.73

row,Variant,polymerase ribozyme fitness (log ratio)
1,G45C U55A A95U C114U,-3.85
2,A6G A41C C56A G69C G93U G117C,-6.65
3,C11A G61U,-1.39
4,U54A U112A G117C,-3.84
5,A18C C49G C89G C123U,-2.67
6,U9C A41U C72U U78A G93C,-1.36
7,G47U U116A,-3.64
8,C20A C97A,-5.7
9,C8A C13A A27G,-4.58
10,C11A C13U A50U C62U,-2.9
11,A50U C56A A66U G69U C80G C104G C115G C123U U130C,-8.27
12,C8G C11U U21C U132A,-0.171
13,G10A C15U G47A U112A C124A G127C,-1.98
14,C85G C102U G113U G117A G120C,-5.52
15,G47A U81G C82U C86G,-1.44
16,A6U C15U,-1.43
17,A50U A118C A121G U129A,-1.76
18,C4U U21A C115G,-4.19
19,C15U C64U G117U G120A,-1.73
20,U134G,0.625
21,U59C G117U,-2.88
22,U7C G44A C79U C86U,-1.45
23,A43U G63U,-3.68
24,G61C U131A,-2.31

row,Variant,polymerase ribozyme fitness (log ratio)
1,U7A C56A C94U,-0.558
2,C8U U130C,0.805
3,G51A G52A U54C,-4.49
4,C11G U131G,-0.902
5,C94A A100G C114U C124G,-5.66
6,G45U G52A U96G,-2.98
7,A27U U96A,-4.07
8,C28U G39C C53U G61U,-2.31
9,C4U G117A,-2.18
10,C62A G117C A118C U131C,-5.12
11,A83C A100U G120A U130C,-3.75
12,C49U A50U,-3.59
13,C3G A5C G48U U54C U92G,-4.45
14,C8G C11U U59A C62A G63U,-5.8
15,A18U C64U C72G A121G,-0.335
16,U14G C89G,-3.56
17,G57C U112G,0.543
18,C94G C114G G120C,-4.95
19,C56U C86U C89U U116G,-2.41
20,C4G C80A,-3.83
21,A50U G63A U106C,-3.09
22,C89G A105G,-3.85
23,A29C A50U C123U U129G,-4.5
24,C40U U112A,0.76

row,Variant,polymerase ribozyme fitness (log ratio)
1,C11G U96A U112A G122A G128C,-1.26
2,G44C U92C C124A,0.556
3,C3U C28A C72G U112A,-3.66
4,A6C C72U C73U C98G C115A U116G,-7.45
5,C13A C73A,-1.36
6,C8U A75U C89U A90U C99U G120A U130G U131A,-4.88
7,U7A C12G A18G G44A G52U,-5.51
8,U59A G61U G117U,-2.27
9,A66C G93A A121G,-0.199
10,U9G A41U G61U U87A G110A,-3.56
11,G61U U92G U126A U129G,-5.18
12,C40A C64U C85A C102A U112G C123U,-5.99
13,U9G A27C C62U C70U C98U,-6.21
14,C34A G47U G61A C86U U130A,-3.42
15,A37G C62U,-0.523
16,C88A U116A,-3.6
17,G17U G71U U81C C89G A119G G128A,-4.58
18,C49U G63C G93C C124U,-0.998
19,C72A A111G A121C,1.27
20,A50G C70U,-0.709
21,C82U,-0.201
22,C11U G71U,0.863
23,C8G G60U U81A C123A,1.75
24,G45U A111U C124U,-3.45

row,Variant,polymerase ribozyme fitness (log ratio)
1,A6C G35U G39A G61U A74C C86U C101A C115U,-6.88
2,C62A C79U C89G U130A,-3.65
3,C97G C101U A121C,-2.97
4,A6U C15G A37G,-1.93
5,G69A C99A,-7.72
6,G69A C79U C80U,-6.55
7,C3A C11G C56G C82U C115U G117A,-1.87
8,U7G G45C C72G C82A C98A,-5.33
9,G57U C88A A95U A121U C124U,-1.04
10,C49A C70G,-4.31
11,C49U G71A G117C,-6.24
12,C20U C49G G52C C72A G93U G117U A119G G128U,-4.52
13,A2G G17C C56U,-4.71
14,G10C C49G G61A U112A A118U,1.17
15,U9A C98G,-5.74
16,C53A C56G G63C U106C,-0.653
17,A24G G60A,-1.82
18,C4U U7G A27U A119G,-1.81
19,C40G C70U,-1.65
20,C70U G128U,-1.82
21,C13U A37C G57U,-0.0732
22,G58U C94U C101G,-1.75
23,A18G G107A,-3.37
24,G39A U78A A108G A111C,-1.88

row,Variant,polymerase ribozyme fitness (log ratio)
1,G60A C82A G113A,-0.999
2,A6C A68G,-3.13
3,U30C U87A,-2.98
4,A5G U78C C80A,-2.8
5,C12U C62U G69A,-3.66
6,G36A U54A C89G C101G,-5.15
7,C4A G52C C114U,-6.04
8,A16U G113A C123U,-4.77
9,G42A G48A G69C,-4.05
10,C64U A83G A111C,-2.93
11,U32A C34A C64U C86G C114A U133C,-5.96
12,A26U G61U,-3.08
13,A5G C28G U78A U96C G110U,-0.656
14,C79U U87A,0.23
15,A37G G61C,-1.44
16,A43U A66G,-3.64
17,C12A C28A G39C A111C G122A,-5.3
18,C4U C11G C101U,-0.238
19,C20A G45A G113U,-0.291
20,A43C C62U C72G,-4.05
21,A6C C82A C89A,-2.13
22,C11G U78C A90C,-0.723
23,U81C A90C U112G,-2.24

# Source: the RNAGym collection of RNA variant scans (doi:10.1073/pnas.2313332121)
